Measurements from patent US20170051285A1, “COMPOSITIONS AND METHODS OF USING SAME FOR REDUCING RESISTANCE TO MOSQUITO LARVICIDES” (priority 2014, published 2017).

Tested on: Ae. aegypti adult females, RJ strain
Assay: dsRNA treatment of larvae followed by pyrethroid (deltamethrin) adulticide bottle bioassay
Format: in vivo, Aedes aegypti
Conditions: soaking 0.1 μg/μL 24 hours plus 4 feedings with food-containing dsRNA, deltamethrin 0.5 μg/bottle
Protocol: Third instar larvae were treated (in groups of 100 larvae) in a final volume of 3 mL of dsRNA solution in autoclaved water (0.5 μg/μL for sodium channel (AAEL008297), PgP (AAEL010379) and Ago3 (AAEL007823) dsRNA, or 0.1 μg/μL for CYP9J26 (JF924909.1). The control group was kept in 3 ml sterile water only. Larvae were soaked in the dsRNA solutions for 24 hr at 27° C., and then transferred into new containers (300 larvae/1500 mL of chlorine-free tap water), which were also maintained at 27° C., and were provided 6 mg/100 mL lab dog/cat diet (Purina Mills) suspended in water as a source of food on a daily basis. As pupae developed, they were transferred to individual vials to await eclosion and sex sorting. For bioassays purpose only females up to five days old were used. See FIG. 11 for detailed explanation of this experiment.
After soaking in the dsRNA solutions for 24 hr at 27° C., the larvae were transferred into new containers (300 larvae/1500 mL of chlorine-free tap water), and were provided agarose cubes containing 300 μg of dsRNA once a day for a total of four days. The larvae were reared until adult stage. […]
Bottles were prepared following the Brogdon and McAllister (1998) protocol [Brogdon and McAllister (1998) Emerg Infect Dis 4:605-613]. […] At 15, 30 and 45 min intervals, the number of live and dead mosquitoes in each bottle was recorded. […]

B1: CYP9J26 dsRNA: dsRNA targeting Cytochrome p450 (CYP9J26) JF924909.1, SEQ ID NO: 203 (nucleic acid)
chain: CTTCAACGACTTCGTCCGATCAATTTACAACAAATATCCTGGAGTGAAGGTTTTCGGAATGTTCGAGACGATCACGCCGTTCTTCGTGATTCGCGATCCGGAGTTGATCAAGCAGATCGGCATCAAGGATTTCGATCACTTCGTTGACCACCGTCCGACGTTCGGACTGGACGATGAAACGGCGGAGCATCCGAAGGCGCTGTTCCGCAAGACGCTGTTCTCGATGACCGGTCAACGGTGGAAGGAGATGCGCGCTACGCTGAGTCCGGCTTTTACCGGCAGTAAGATGCGACAGATGTTCTCGCTGATGAGCGAATGCTGCGACGAAATGATGAAGCACTACCTGGACAAGGCGAAGGGCACGGGAAGGGTGGAAGTCGAAATGAAGGACTTGCTGAGTCGAATCACTATCAATGTGATTGCGTCGTGTGCTTTTGGAATCAAGGTGGAC
modifications: double stranded RNA
susceptibility of adult mosquitoes to deltamethrin (FIG. 18): more sensitive to deltamethrin during the first 15 minutes
susceptibility of adult mosquitoes to deltamethrin (FIG. 18) (listed as CYP9J29 dsRNA): affects the susceptibility
